According to patent EP4471048A1, “PEPTIDE INHIBITORS OF INTERLEUKIN-23 RECEPTOR” (Zealand Pharma A/S, priority 2023, dated 2024):
One block for each binder: values may come before it. *1 amine or outer side, *2 acyl side, *3 side chain or, on linkers, in order; H or OH if unused. Bridges are numbered along the chain shown (N, C = ends). Primed or numbered codes have the meaning given here. Where no end group is shown, it is not given here. [ ]: non-standard residue; d: D form. 4‑Aminomethyl‑phenylacetyl = 4-aminomethyl-phenylacetyl unit, its amine closes the lactam, O=C(Cc1ccc(CN[*:1])cc1)[*:2]; 1,3‑dibromopropan‑2‑one″ = linker forming 1,3-dithio-propan-2-one bridge -SCH2C(=O)CH2S- between two Cys; bLys = L-beta-lysine, (3S)-3,6-diaminohexanoic acid, O=C(C[C@H](CCCN[*:3])N[*:1])[*:2]; Phe(4-Me) = Cc1ccc(C[C@H](N)C(=O)O)cc1; 2Nal = N[C@@H](Cc1ccc2ccccc2c1)C(=O)O; AEF = NCCOc1ccc(C[C@H](N)C(=O)O)cc1; 3Pal = N[C@@H](Cc1cccnc1)C(=O)O; αMeL = CC(C)C[C@](C)(N)C(=O)O; 3Amb = NCc1cccc(C(=O)O)c1; Dab = NCC[C@H](N)C(=O)O; Aib = CC(C)(N)C(=O)O

What was measured:
[1] = biological target: T1, human IL-23R endogenously expressed on DB cells (human, UniProt Q5VWK5 24-629); assay: cell-based or functional assay
T1 sequence (looked up): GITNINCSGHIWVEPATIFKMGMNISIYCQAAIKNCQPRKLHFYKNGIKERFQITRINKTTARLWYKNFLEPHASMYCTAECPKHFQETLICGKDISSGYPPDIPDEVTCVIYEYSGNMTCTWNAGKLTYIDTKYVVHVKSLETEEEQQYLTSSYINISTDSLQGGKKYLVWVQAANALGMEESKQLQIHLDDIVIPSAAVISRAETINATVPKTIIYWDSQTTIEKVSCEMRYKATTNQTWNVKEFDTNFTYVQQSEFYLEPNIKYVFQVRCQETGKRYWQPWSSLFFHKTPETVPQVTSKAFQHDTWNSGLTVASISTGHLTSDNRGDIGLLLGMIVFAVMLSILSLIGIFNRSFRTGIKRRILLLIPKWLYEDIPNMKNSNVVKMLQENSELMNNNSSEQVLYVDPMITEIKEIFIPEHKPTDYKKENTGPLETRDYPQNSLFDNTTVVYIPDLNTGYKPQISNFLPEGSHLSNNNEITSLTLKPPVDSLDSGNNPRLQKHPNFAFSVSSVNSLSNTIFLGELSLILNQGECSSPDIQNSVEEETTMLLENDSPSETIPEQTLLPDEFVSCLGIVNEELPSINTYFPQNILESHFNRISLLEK

[2] = biological target: T2, Nluc-IL23R fusion protein (human, UniProt Q5VWK5 22-629); assay: BRET competition vs TAMRA-labelled peptide, Nluc-IL23R membranes
T2 construct: range 22-629; Stably expressed in HEK293 cells; also called hIL-23R; human IL-23R; not shown: Nanoluc protein (N1371, Promega) at the N-terminus, after a secretion signal
T2 sequence (looked up): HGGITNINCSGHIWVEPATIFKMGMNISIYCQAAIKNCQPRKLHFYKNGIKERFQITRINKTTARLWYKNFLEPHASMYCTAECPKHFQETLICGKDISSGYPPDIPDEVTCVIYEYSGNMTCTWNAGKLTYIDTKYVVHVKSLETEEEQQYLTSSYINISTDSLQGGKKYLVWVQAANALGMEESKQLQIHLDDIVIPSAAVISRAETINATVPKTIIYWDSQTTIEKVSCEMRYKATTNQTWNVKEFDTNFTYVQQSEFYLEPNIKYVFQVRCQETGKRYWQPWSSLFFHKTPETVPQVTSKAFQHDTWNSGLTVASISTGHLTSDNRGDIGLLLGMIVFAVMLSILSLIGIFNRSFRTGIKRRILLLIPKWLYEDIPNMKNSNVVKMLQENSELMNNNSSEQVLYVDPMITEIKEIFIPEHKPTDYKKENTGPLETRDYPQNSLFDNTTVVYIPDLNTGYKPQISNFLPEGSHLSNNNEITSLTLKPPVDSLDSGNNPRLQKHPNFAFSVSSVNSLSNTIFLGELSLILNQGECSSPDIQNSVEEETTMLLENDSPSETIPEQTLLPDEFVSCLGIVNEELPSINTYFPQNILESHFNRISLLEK

B1: Ref 78 (peptide)
peptide: [3Amb]SCWQC[AEF][2Nal][αMeL]ER[3Pal]-NH2
modifications: lactam N-10; linker 3-6 via 1,3‑dibromopropan‑2‑one″
hIL-23 (pSTAT3) antagonist % inhibition [1]: 100% | hIL-23 (pSTAT3) antagonist IC50 [1]: 0.13 nM | % displacement [2]: 100%

B3: Compound 39 (peptide)
peptide: ETWQE[AEF][2Nal][αMeL]K[Dab][3Pal]-NHMe
modifications: lactam 1-9, N-5
SMILES: CNC(=O)[C@H](Cc1cccnc1)NC(=O)[C@H](CCN)NC(=O)[C@@H]1CCCCNC(=O)CC[C@@H]2NC(=O)CC[C@H](NC(=O)[C@H](CCC(N)=O)NC(=O)[C@H](Cc3c[nH]c4ccccc34)NC(=O)[C@H]([C@@H](C)O)NC2=O)C(=O)N[C@@H](Cc2ccc(OCCN)cc2)C(=O)N[C@@H](Cc2ccc3ccccc3c2)C(=O)N[C@@](C)(CC(C)C)C(=O)N1
hIL-23 (pSTAT3) antagonist % inhibition [1]: 99% | hIL-23 (pSTAT3) antagonist IC50 [1]: 2.4 nM | % displacement [2]: 98%

B5: Ref 82 (peptide)
peptide: [4‑Aminomethyl‑phenylacetyl]SCWQC[AEF][2Nal][αMeL]E[Dab]-NH2
modifications: lactam N-10; linker 3-6 via 1,3‑dibromopropan‑2‑one″
hIL-23 (pSTAT3) antagonist % inhibition [1]: 97% | hIL-23 (pSTAT3) antagonist IC50 [1]: 11 nM | % displacement [2]: 103%

B6: Ref 52 (peptide)
peptide: [4‑Aminomethyl‑phenylacetyl]SCWQC[AEF][2Nal][αMeL]ER-NH2
modifications: lactam N-10; linker 3-6 via 1,3‑dibromopropan‑2‑one″
hIL-23 (pSTAT3) antagonist % inhibition [1]: 103% | hIL-23 (pSTAT3) antagonist IC50 [1]: 7.8 nM | % displacement [2]: 100%

B9: Compound 60 (peptide)
peptide: KIVWQE[AEF][2Nal][αMeL]E[Dab][3Pal]-NHMe
modifications: lactam 1-10, N-6
SMILES: CC[C@H](C)[C@@H]1NC(=O)[C@@H]2CCCCNC(=O)CC[C@@H](C(=O)N[C@@H](CCN)C(=O)N[C@@H](Cc3cccnc3)C(=O)NC)NC(=O)[C@](C)(CC(C)C)NC(=O)[C@H](Cc3ccc4ccccc4c3)NC(=O)[C@H](Cc3ccc(OCCN)cc3)NC(=O)[C@H](CCC(=O)N2)NC(=O)[C@H](CCC(N)=O)NC(=O)[C@H](Cc2c[nH]c3ccccc23)NC(=O)[C@H](C(C)C)NC1=O
hIL-23 (pSTAT3) antagonist % inhibition [1]: 101% | hIL-23 (pSTAT3) antagonist IC50 [1]: 0.63 nM | % displacement [2]: 95%

B11: Ref 120 (peptide)
peptide: [4‑Aminomethyl‑phenylacetyl]SCWQC[AEF][2Nal][αMeL]E[Dab][3Pal]-NH2
modifications: lactam N-10; linker 3-6 via 1,3‑dibromopropan‑2‑one″
hIL-23 (pSTAT3) antagonist % inhibition [1]: 101% | hIL-23 (pSTAT3) antagonist IC50 [1]: 0.054 nM | % displacement [2]: 94%

B15: Compound 36 (peptide)
peptide: KTWQE[AEF][2Nal][αMeL]E[Dab][3Pal]-NHMe
modifications: lactam 1-9, N-5
SMILES: CNC(=O)[C@H](Cc1cccnc1)NC(=O)[C@H](CCN)NC(=O)[C@@H]1CCC(=O)NCCCC[C@@H]2NC(=O)CC[C@H](NC(=O)[C@H](CCC(N)=O)NC(=O)[C@H](Cc3c[nH]c4ccccc34)NC(=O)[C@H]([C@@H](C)O)NC2=O)C(=O)N[C@@H](Cc2ccc(OCCN)cc2)C(=O)N[C@@H](Cc2ccc3ccccc3c2)C(=O)N[C@@](C)(CC(C)C)C(=O)N1
hIL-23 (pSTAT3) antagonist % inhibition [1]: 97% | hIL-23 (pSTAT3) antagonist IC50 [1]: 1.1 nM | % displacement [2]: 100%

B16: Compound 2 (peptide)
peptide: KTVWQE[AEF][2Nal][αMeL]E[Dab][3Pal]-NH2
modifications: lactam 1-10, N-6
SMILES: CC(C)C[C@]1(C)NC(=O)[C@H](Cc2ccc3ccccc3c2)NC(=O)[C@H](Cc2ccc(OCCN)cc2)NC(=O)[C@@H]2CCC(=O)N[C@@H](CCCCNC(=O)CC[C@@H](C(=O)N[C@@H](CCN)C(=O)N[C@@H](Cc3cccnc3)C(N)=O)NC1=O)C(=O)N[C@@H]([C@@H](C)O)C(=O)N[C@@H](C(C)C)C(=O)N[C@@H](Cc1c[nH]c3ccccc13)C(=O)N[C@@H](CCC(N)=O)C(=O)N2
hIL-23 (pSTAT3) antagonist % inhibition [1]: 99% | hIL-23 (pSTAT3) antagonist IC50 [1]: 0.11 nM | % displacement [2]: 100%

Second part, the binder after the results:

hIL-23 (pSTAT3) antagonist % inhibition [1]: 100% | hIL-23 (pSTAT3) antagonist IC50 [1]: 0.031 nM | % displacement [2]: 97%
B2: Ref 155 (peptide)
peptide: Ac-KTCWQC[AEF][2Nal][αMeL]E[Dab][3Pal]-NH2
modifications: lactam 1-10; linker 3-6 via 1,3‑dibromopropan‑2‑one″

hIL-23 (pSTAT3) antagonist IC50 [1]: 0.028 nM | % displacement [2]: 97%
B4: Ref 122 (peptide)
peptide: [4‑Aminomethyl‑phenylacetyl]SEWQ[Dab][AEF][2Nal][αMeL]E[Dab][3Pal]-NH2
modifications: lactam N-10; bridge 3-6; also: (2c) bridge type not defined

hIL-23 (pSTAT3) antagonist % inhibition [1]: 101% | hIL-23 (pSTAT3) antagonist IC50 [1]: 1.5 nM | % displacement [2]: 105%
B7: Compound 3 (peptide)
peptide: [dK]TVWQD[AEF][2Nal][αMeL]E[Dab][3Pal]-NH2
modifications: lactam 1-10, N-6
SMILES: CC(C)C[C@]1(C)NC(=O)[C@H](Cc2ccc3ccccc3c2)NC(=O)[C@H](Cc2ccc(OCCN)cc2)NC(=O)[C@@H]2CC(=O)N[C@H](CCCCNC(=O)CC[C@@H](C(=O)N[C@@H](CCN)C(=O)N[C@@H](Cc3cccnc3)C(N)=O)NC1=O)C(=O)N[C@@H]([C@@H](C)O)C(=O)N[C@@H](C(C)C)C(=O)N[C@@H](Cc1c[nH]c3ccccc13)C(=O)N[C@@H](CCC(N)=O)C(=O)N2

hIL-23 (pSTAT3) antagonist % inhibition [1]: 102% | hIL-23 (pSTAT3) antagonist IC50 [1]: 0.23 nM | % displacement [2]: 103%
B8: Compound 1 (peptide)
peptide: [dK]TVWQE[AEF][2Nal][αMeL]E[Dab][3Pal]-NH2
modifications: lactam 1-10; lactam (positions not given here); not fully specified (bridges); printed as [{d}K](1c)(6c)^{†}TVWQE(6c)[Y(2-aminoethoxy)][2-Nal][2-Me-Leu]E(1c)[Dab][3-(3-Pyridyl)-Ala]-[NH2]

hIL-23 (pSTAT3) antagonist % inhibition [1]: 97% | hIL-23 (pSTAT3) antagonist IC50 [1]: 11 nM | % displacement [2]: 98%
B10: Ref 80 (peptide)
peptide: [4‑Aminomethyl‑phenylacetyl]SCWQC[AEF][2Nal][αMeL]E[dR]-NH2
modifications: lactam N-10; linker 3-6 via 1,3‑dibromopropan‑2‑one″

hIL-23 (pSTAT3) antagonist % inhibition [1]: 100% | % displacement [2]: 104%
B12: Compound 12 (peptide)
peptide: [bLys]TVWQE[AEF][2Nal][αMeL]E[Dab][3Pal]-NH2
modifications: lactam 1-10, N-6

hIL-23 (pSTAT3) antagonist % inhibition [1]: 99% | hIL-23 (pSTAT3) antagonist IC50 [1]: 29 nM | % displacement [2]: 110%
B13: Ref 41 (peptide)
peptide: [3Amb]SCWQC[AEF][2Nal][αMeL]E[dR]-NH2
modifications: lactam N-10; linker 3-6 via 1,3‑dibromopropan‑2‑one″

hIL-23 (pSTAT3) antagonist % inhibition [1]: 99% | hIL-23 (pSTAT3) antagonist IC50 [1]: 2.9 nM | % displacement [2]: 107% | IC50 [2]: 0.092 nM
B14: Compound 17 (peptide)
peptide: KIVWQE[Phe(4-Me)][2Nal][Aib]E[Dab][3Pal]-NH2
modifications: lactam 1-10, N-6
SMILES: CC[C@H](C)[C@@H]1NC(=O)[C@@H]2CCCCNC(=O)CC[C@@H](C(=O)N[C@@H](CCN)C(=O)N[C@@H](Cc3cccnc3)C(N)=O)NC(=O)C(C)(C)NC(=O)[C@H](Cc3ccc4ccccc4c3)NC(=O)[C@H](Cc3ccc(C)cc3)NC(=O)[C@H](CCC(=O)N2)NC(=O)[C@H](CCC(N)=O)NC(=O)[C@H](Cc2c[nH]c3ccccc23)NC(=O)[C@H](C(C)C)NC1=O
